Results reported in PMC4687910, “Thermostabilization of the Human Serotonin Transporter in an Antidepressant-Bound Conformation” (PLoS ONE, 2015).

Tested on: T1, NCCc1c[nH]c2ccc(O)cc12
T1 construct: wild-type hSERT expressed in HEK293S cells
Assay: cells, lysate or membranes
Format: cell-based, Homo sapiens
Settings: Na+ and Cl-

Substance “human serotonin transporter (hSERT) (Homo sapiens)” has a Km of 3.4 µM.
